One molecule from US20240010747A1, “ANTI-MRP4 (ENCODED BY ABCC4 GENE) ANTIBODIES AND USES THEREOF” (Kenjockety Biotechnology, Inc., priority 2020, published 2024) can be followed below.

For assay [1], the target named is T1, human ABCC4 (Homo sapiens, UniProt O15439).
T1 construct: expressed in transfected cells
T1 sequence (O15439 1-1325): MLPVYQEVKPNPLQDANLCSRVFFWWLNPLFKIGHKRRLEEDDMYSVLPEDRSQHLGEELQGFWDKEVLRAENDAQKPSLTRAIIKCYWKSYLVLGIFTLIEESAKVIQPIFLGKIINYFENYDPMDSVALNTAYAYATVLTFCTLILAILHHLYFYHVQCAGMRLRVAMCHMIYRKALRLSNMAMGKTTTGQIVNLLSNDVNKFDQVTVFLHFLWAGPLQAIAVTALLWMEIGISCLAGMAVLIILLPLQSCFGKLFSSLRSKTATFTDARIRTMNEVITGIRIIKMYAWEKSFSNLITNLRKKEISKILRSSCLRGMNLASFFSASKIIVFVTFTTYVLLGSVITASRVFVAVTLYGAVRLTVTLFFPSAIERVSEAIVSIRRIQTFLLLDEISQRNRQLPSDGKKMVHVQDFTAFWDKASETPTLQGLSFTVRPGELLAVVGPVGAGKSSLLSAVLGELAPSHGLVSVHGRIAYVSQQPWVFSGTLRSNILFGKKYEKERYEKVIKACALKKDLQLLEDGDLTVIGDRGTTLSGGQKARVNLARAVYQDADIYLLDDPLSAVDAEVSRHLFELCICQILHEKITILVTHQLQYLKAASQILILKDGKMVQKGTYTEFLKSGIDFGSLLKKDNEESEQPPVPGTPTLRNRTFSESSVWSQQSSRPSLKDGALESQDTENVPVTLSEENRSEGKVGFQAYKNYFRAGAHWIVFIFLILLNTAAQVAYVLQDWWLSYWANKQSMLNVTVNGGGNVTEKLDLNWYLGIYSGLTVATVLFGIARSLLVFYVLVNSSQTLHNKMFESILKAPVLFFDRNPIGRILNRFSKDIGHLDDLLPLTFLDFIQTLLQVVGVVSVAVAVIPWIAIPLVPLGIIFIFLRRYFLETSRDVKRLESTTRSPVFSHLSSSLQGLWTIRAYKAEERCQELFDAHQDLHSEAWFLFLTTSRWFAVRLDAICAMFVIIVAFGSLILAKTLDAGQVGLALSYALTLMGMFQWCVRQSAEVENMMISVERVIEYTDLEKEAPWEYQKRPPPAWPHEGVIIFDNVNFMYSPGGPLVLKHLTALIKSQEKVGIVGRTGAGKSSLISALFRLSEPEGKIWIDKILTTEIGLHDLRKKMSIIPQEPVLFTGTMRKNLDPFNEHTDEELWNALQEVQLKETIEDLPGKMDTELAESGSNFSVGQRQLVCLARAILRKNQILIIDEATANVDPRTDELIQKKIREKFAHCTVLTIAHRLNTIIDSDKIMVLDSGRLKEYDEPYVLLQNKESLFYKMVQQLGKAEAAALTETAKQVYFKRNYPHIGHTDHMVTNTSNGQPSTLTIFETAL
As to the kind of experiment: Flow cytometry (FACS) binding to C6 cells stably transfected to express human ABCC4 (different experiment, Table 4). In short, it runs like this:
(§1)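 Murine C6 cells stably expressing FLAG-tagged human or cynomolgus ABCC4 incubated 30 min on ice with antibodies, either 5 ug/mL or serially diluted from 100 ug/mL, in PBS+2% FBS+0.02% azide. Detection with PE anti-human IgG F(ab′)2 by flow cytometry; EC50 at half-maximal MFI; negative below background, positive >3× background.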
On the technique in general: A flow cytometer gives signals particle by particle.

A further assay deals with cynomolgus ABCC4. Kind of assay: Flow cytometry (FACS) binding to C6 cells stably transfected to express cynomolgus ABCC4 (different experiment, different C6.cC4 cell line, Table 4). In short, it runs like this:
as §1

The target in assay [2] is T2, human ABCC4 (human, UniProt O15439 1-1325).
T2 construct: Expressed on murine C6 cells stably transfected with human ABCC4 cDNA with C-terminal FLAG tag; also called MRP4; Multidrug resistance protein 4; not shown: C-terminal fused FLAG tag
T2 sequence: T1 sequence (O15439 1-1325)
As to the kind of experiment: FACS, C6 cells stably expressing human ABCC4; + = MFI>3x background. The procedure: Antibody binding to cells was evaluated by flow cytometry. Murine C6 cells stably transfected to express human or cynomolgus ABCC4 were washed once in flow cytometry buffer (PBS+2% FBS+0.02% sodium azide), resuspended at 2×10\hat{ }6 cells/mL in flow cytometry buffer, and dispensed into 96-well microtiter plates at 0.1 mL/well. Recombinant antibodies were added to cells at 5 ug/mL for initial binding confirmation, or serially diluted from 100 ug/mL in flow cytometry buffer. After incubating cells on ice for 30 min, cells were washed twice with flow cytometry buffer. Bound antibody was detected with PE-labeled F(ab′)₂ fragment goat anti-human IgG (Jackson ImmunoResearch) and evaluated on an Attune N×T flow cytometer. EC50 is calculated to be the concentration of antibody that gives half maximal response.

B1: C4.1152 (antibody, V domains shown)
VH: EVKLVESDGGLVQPGRSLKLSCAASGFTFSDFYMAWVRQAPTKGLEWIASISHDGRNTYYRDSVKGRFTISRDNAKRTLYLQMDSLRSEDTATYYCASLTARYKGVMGAWGQGTLVTVSS
VL: DVVMTQSPSHLAASPGESVSINCKASKNIYKYLAWYQQKPGKTNKLLIYSGSTLQSGTPSRFSGSGSGSDFTLTIRNLEPEDFGLYYCQHHNEYPPTFGGGTKLEIK
Take B1: the “Human ABCC4 binding” value in the assay with human ABCC4 [1] (C6 cells stably transfected to express human ABCC4, FACS, different experiment, Table 4) is “+ (Positive (+)=MFI>3× background level)”. Also, the “binding to human ABCC4 expressed on cell surface” value with human ABCC4 [1] (Table 4 study, stated in words) is “bind to both human and cynomolgus ABCC4”. The “binding to cynomolgus ABCC4 expressed on cell surface” value in the assay on cynomolgus ABCC4 (Table 4 study, stated in words) is “bind to both human and cynomolgus ABCC4”. In addition, the “Cynomolgus ABCC4 binding” value in the assay with cynomolgus ABCC4 (different C6.cC4 cell line, C6 cells stably transfected to express cynomolgus ABCC4, FACS, Table 4) was “+ (Positive (+)=MFI>3× background level)”. In addition, in the assay with human ABCC4 [2], the binding result is listed as “binds”.
